Test results published in patent US20250034527A1 (Stanford University, published 2025).
Positions count from the first letter of the chain named.

Assays:
Fzd1 CRD [1] = target: T1, Fzd1 CRD (human, UniProt Q9UP38 111-230); experiment: yeast surface display of 4AF30, staining with biotinylated Fzd CRD and streptavidin-Alexa Fluor 647, flow cytometry
Text: (§1) To understand the affinity of individual DFBs towards different Fzd CRDs, two different methods were used to measure the specificity and affinity. DFBs were expressed on yeast surface and the yeast stained with biotinylated Fzd CRDs. The cells were washed and Streptavidin, Alexa Fluor™ 647 conjugates were used to stain the yeasts. The fluorescence signals were read on flow cytometry.

Fzd5 CRD [2] = target: T2, Fzd5 CRD (human, UniProt Q13467 28-150, limits assumed, biotinylated); experiment: as above
T2 construct: domain: CRD; Species 'human' comes from the specificity statements; also called Fz5; frizzled 5 cysteine rich domain
T2 sequence (looked up): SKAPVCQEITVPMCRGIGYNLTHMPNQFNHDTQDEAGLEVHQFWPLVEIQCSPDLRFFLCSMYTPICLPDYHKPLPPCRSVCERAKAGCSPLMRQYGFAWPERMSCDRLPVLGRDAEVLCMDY
Text: as §1

Fzd2 CRD [3] = target: T3, Fzd2 CRD (human, UniProt Q14332 34-153); experiment: as above
Text: as §1

Fzd4 CRD [4] = target: T4, Fzd4 CRD (human, UniProt Q9ULV1 40-161, limits assumed, biotinylated); experiment: yeast surface display of DFB, titration with biotinylated Fzd CRD, flow cytometry
T4 construct: domain: CRD; also called Fz4; frizzled 4 cysteine rich domain
T4 sequence (looked up): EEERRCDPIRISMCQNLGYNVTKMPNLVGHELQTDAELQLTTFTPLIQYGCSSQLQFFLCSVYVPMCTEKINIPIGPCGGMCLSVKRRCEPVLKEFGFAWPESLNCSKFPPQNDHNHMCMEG
Text: as §1

Fzd4 CRD [5] = target: T4, Fzd4 CRD; experiment: SPR, biotinylated Fzd CRD captured on SA chip, DFB as analyte
Protocol: (§2) Second, individual DFB proteins were purified and surface Plasmon Resonance (SPR) used to measure the affinity between Fzd CRD with the DFB. The biotinylated Fzd CRD was captured on SA sensor chip at low density. A gradient concentration of DFB analyte was flown over the chip. The data was analyzed by BIACore accompanying software.

Fzd8 CRD [6] = target: T5, Fzd8 CRD (human, UniProt Q9H461 30-151, limits assumed, biotinylated); experiment: as above
T5 construct: domain: CRD; Species 'human' comes from the specificity statements; also called Fz8; frizzled 8 cysteine rich domain
T5 sequence (looked up): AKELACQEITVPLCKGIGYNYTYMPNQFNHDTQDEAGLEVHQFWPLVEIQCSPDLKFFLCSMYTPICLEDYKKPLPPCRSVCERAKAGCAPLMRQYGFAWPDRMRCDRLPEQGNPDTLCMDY
Protocol: as §2

Fzd7 CRD [7] = target: T6, Fzd7 CRD (human, UniProt O75084 44-163); experiment: SPR: biotinylated Fzd7 CRD captured on an SA chip, 1AF34 as analyte, 63 nM down to 0.24 nM
Protocol: as §2

Fzd1 CRD [8] = target: T1, Fzd1 CRD; experiment: yeast surface display of DFB, titration with biotinylated Fzd CRD, flow cytometry; yeast titration, Fz1
Text: as §1

Fzd2 CRD [9] = target: T3, Fzd2 CRD; experiment: yeast surface display of DFB, titration with biotinylated Fzd CRD, flow cytometry; yeast titration, Fz2
Text: as §1

Fzd7 CRD [10] = target: T6, Fzd7 CRD; experiment: yeast surface display of DFB, titration with biotinylated Fzd CRD, flow cytometry; yeast titration, Fz7
Text: as §1

Fzd8 CRD [11] = target: T5, Fzd8 CRD; experiment: SPR, biotinylated Fzd CRD captured on SA chip, DFB as analyte; SPR, Fzd8
Protocol: as §2

Fzd7 CRD [12] = target: T6, Fzd7 CRD; experiment: SPR, biotinylated Fzd CRD captured on SA chip, DFB as analyte; SPR, Fzd7
Protocol: as §2

Fzd7 CRD [13] = target: T6, Fzd7 CRD; experiment: yeast surface display of ANK12, staining with biotinylated Fzd CRD and streptavidin-Alexa Fluor 647, flow cytometry
Text: as §1

Fzd1 CRD [14] = target: T1, Fzd1 CRD; experiment: as above
Text: as §1

Fzd4 CRD [15] = target: T4, Fzd4 CRD; experiment: as above
Text: as §1

Fzd2 CRD [16] = target: T3, Fzd2 CRD; experiment: as above
Text: as §1

Fzd5 CRD [17] = target: T2, Fzd5 CRD; experiment: yeast surface display of DFB, titration with biotinylated Fzd CRD, flow cytometry
Text: as §1

Fzd8 CRD [18] = target: T5, Fzd8 CRD; experiment: as above
Text: as §1

Fzd5 CRD [19] = target: T2, Fzd5 CRD; experiment: yeast surface display titration with biotinylated Fzd CRD, flow cytometry
Fzd7 CRD [20] = target: T6, Fzd7 CRD; experiment: SPR, biotinylated Fzd CRD captured on SA chip, DFB as analyte
Protocol: as §2

Fzd8 CRD [21] = target: T5, Fzd8 CRD; experiment: SPR: biotinylated Fzd8 CRD captured on an SA chip, 1AF34F7 as analyte, 1 uM down to 0.24 nM
Protocol: as §2

B1: 4AF30 (designed binder)
chain: SELGKRLIRAALDGNKDRVKDLIENGADVNASLMSGTTPLYAAAMNGHKEVVKLLISKGADVNAQSVAGSTPLVAAANFGHNEVVKLLISKGADVNAVTAFGVTPLHAAAADGHKEVVKLLISKGADVNAKAGRGMTPLHIAAFRGHKEVVKLLISKGADLNTSAKDGATPLDMARESGNEEVVKLLEKQLE
notes: Engineered ankyrin-repeat protein; Display fusion and tags are not described; also called DFB
Does B1 bind (Fzd1 CRD [1])?
Result: no binding (tested: 1000 nM)

Does B1 bind (Fzd5 CRD [2])?
Result: no binding (tested: 1000 nM)

Does B1 bind (Fzd2 CRD [3])?
Result: no binding (tested: 1000 nM)

What about the EC50 (Fzd4 CRD [4]) of the same binder?
The EC50 was 1.6 nM.

What about the Kd (Fzd4 CRD [5]) of the same binder?
The Kd was 1.4 nM.

What about the Kd (Fzd8 CRD [6]) of the same binder?
Its Kd is 400 nM.

B2: 1AF34 (designed binder)
chain: SELGTRLIRAALDGNKDRVKDLIENGADVNASLMSGATPLHAAAMNGHKEVVKLLISKGADVNAQSVAGSTPLDAAAFSGHKEVVKLLISKGADVNAVNAAGLTPLHAAADNGHKEVVKLLISKGADVNAKADHGMTPLHFAAQRGHKEVVKLLISKGADLNTSAKDGATPLDMARESGNEEVVKLLEKQLE
notes: as for B1
Which results are given for B2?
Kd (Fzd7 CRD [7]): 1.3 nM; EC50 (Fzd1 CRD [8]): 19 nM; EC50 (Fzd2 CRD [9]): 31.6 nM; EC50 (Fzd7 CRD [10]): 5.6 nM; Kd (Fzd8 CRD [11]): 23 nM; Kd (Fzd7 CRD [12]): 1 nM

B3: ANK12 (designed binder)
chain: SELGKRLIMAALDGNKDRVKDLIENGADVNASLVSGATPLHAAAMNGHKEVVKLLISKGADVNAQSAAGSTPLAAAAINGHKEVVKLLISKGADVNAVTAAGMTPLHAAAANGHKEVVKLLISKGADVNAKADRGMTPLHFAAWRGHKEVVKLLISKGADLNTSAKDGATPLDMARESGNEEVVKLLEKQLE
notes: as for B1
Does B3 bind (Fzd7 CRD [13])?
Result: no binding (tested: 1000 nM)

Does B3 bind (Fzd1 CRD [14])?
Result: no binding (tested: 1000 nM)

Does B3 bind (Fzd4 CRD [15])?
Result: no binding (tested: 1000 nM)

Does B3 bind (Fzd2 CRD [16])?
Result: no binding (tested: 1000 nM)

And the EC50 (Fzd5 CRD [17])?
Its EC50 is 4.4 nM.

What about the EC50 (Fzd8 CRD [18]) of the same binder?
The EC50 was 3.6 nM.

What about the Kd (Fzd8 CRD [6]) of the same binder?
Its Kd is 0.2 nM.

B4: 1AF34F7 (designed binder)
chain: B2 chain with A108D, N112D, K115N
notes: as for B1
Does B4 bind (Fzd5 CRD [19])?
Result: no binding (tested: 1 µM)

What about the EC50 (Fzd1 CRD [8]) of the same binder?
The EC50 was 7.5 nM.

What about the EC50 (Fzd2 CRD [9]) of the same binder?
The EC50 was 9.9 nM.

And the EC50 (Fzd7 CRD [10])?
The EC50 was 1.8 nM.

And the Kd (Fzd7 CRD [20])?
Its Kd is 1.6 nM.

What about the Kd (Fzd8 CRD [21]) of the same binder?
The Kd was 2600 nM.
